Where two headings read alike, the source gives them in different places. Starred links: 1 amine or outer side, 2 acyl side, 3 side chain; linkers in the order of their positions; H or OH if unused. Non-standard residues stand in square brackets, D forms with d. No end group written: not given here. *: point of attachment. Asp‑al = Asp with the carboxyl reduced to aldehyde (3-amino-4-oxobutanoic acid), O=C[C@H](CC(=O)[*:3])N[*:1]; benzoxazol‑2‑yl ketone = Asp carboxyl replaced by 2-benzoxazolyl ketone, c1ccc2oc(*)nc2c1; Pro(4R-allyloxy) = 4(R)-allyloxyproline, C=CCO[C@@H]1C[C@@H](C(=O)[*:2])N([*:1])C1; X3 = (2,6-dichlorophenylmethyloxy)methyl ketone, Clc1cccc(Cl)c1COC*; X1 = 7‑methoxybenzoxazol‑2‑yl ketone, COc1cccc2nc(*)oc12; X2 = 4‑methoxybenzoxazol‑2‑yl ketone, COc1cccc2oc(*)nc12; X4 = (2-chlorobenzyloxy)methyl ketone, Clc1ccccc1COC*; Pro(4-benzyloxy) = 4-benzyloxyproline; Pro(4-phenoxy) = 4-phenoxyproline; Hyp = O=C(O)[C@@H]1C[C@@H](O)CN1; Cbz = O=C(OCc1ccccc1)*
T1: interleukin-1β converting enzyme (ICE), as used in the enzyme assays (UniProt P29466 120-297; P29466 317-404, limits assumed)
T1 construct: also called IL-1β Converting Enzyme
T1 sequence (looked up) 1: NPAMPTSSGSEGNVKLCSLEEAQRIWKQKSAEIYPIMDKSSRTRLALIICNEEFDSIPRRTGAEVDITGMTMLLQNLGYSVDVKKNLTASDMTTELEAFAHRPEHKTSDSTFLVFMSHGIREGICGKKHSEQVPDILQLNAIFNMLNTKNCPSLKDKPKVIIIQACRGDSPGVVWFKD
T1 sequence (looked up) 2: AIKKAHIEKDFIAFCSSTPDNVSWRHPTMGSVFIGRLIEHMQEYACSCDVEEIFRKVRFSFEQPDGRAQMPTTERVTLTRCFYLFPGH

T2: interleukin-1β converting enzyme (ICE) in human peripheral blood mononuclear cells (human, UniProt P29466 1-404, limits assumed)
T2 sequence (looked up): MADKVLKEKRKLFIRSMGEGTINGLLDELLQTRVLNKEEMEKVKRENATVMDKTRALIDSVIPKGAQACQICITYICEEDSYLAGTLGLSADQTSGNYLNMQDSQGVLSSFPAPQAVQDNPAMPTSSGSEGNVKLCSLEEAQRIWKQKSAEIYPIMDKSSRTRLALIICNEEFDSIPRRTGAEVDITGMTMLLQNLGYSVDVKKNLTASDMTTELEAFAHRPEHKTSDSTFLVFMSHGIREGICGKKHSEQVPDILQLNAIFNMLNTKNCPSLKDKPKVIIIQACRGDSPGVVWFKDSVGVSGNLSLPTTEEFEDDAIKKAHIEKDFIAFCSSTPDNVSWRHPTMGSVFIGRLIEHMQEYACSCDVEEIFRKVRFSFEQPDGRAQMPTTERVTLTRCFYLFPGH


Tests used:
[1] = molecular target: interleukin-1β converting enzyme (ICE), as used in the enzyme assays (UniProt P29466); experiment: ICE enzyme inhibition, UV-visible substrate Suc-YVAD-pNA
[2] = molecular target: interleukin-1β converting enzyme (ICE), as used in the enzyme assays (UniProt P29466); experiment: ICE enzyme inhibition, fluorescent substrate Ac-YVAD-AMC
[3] = molecular target: T1, interleukin-1β converting enzyme (ICE), …; experiment: as above
Method: This assay is run essentially according to Thornberry et al. (Nature 356: 768–774 (1992)), using substrate 17 referenced in that article. […] The following components are mixed:
Buffer and ICE are added to the wells. The components are left to incubate at 37° C for 15 minutes in a temperature-controlled wellplate. […] A linear fit of the data for each well is performed and a rate is determined in fluorescence units per second.

[4] = molecular target: T1, interleukin-1β converting enzyme (ICE), …; experiment: ICE enzyme inhibition, UV-visible substrate Suc-YVAD-pNA
Method: Synthesis of analogous substrates is described by L. A. Reiter (Int. J. Peptide Protein Res. 43, 87–96 (1994)). […] Buffer, ICE and DMSO (if inhibitor is present) are added to the wells in the order listed. The components are left to incubate at room temperature for 15 minutes starting at the time that all components are present in all wells. The microtiter plate reader is set to incubate at 37° C. After the 15 minute incubation, substrate is added directly to the wells and the reaction is monitored by following the release of the chromophore (pNA) at 405–603 nm at 37° C. for 20 minutes. A linear fit of the data is performed and the rate is calculated in mOD/min. DMSO is only present during experiments involving inhibitors, buffer is used to make up the volume to 100 µl in the other experiments.

[5] = molecular target: T2, interleukin-1β converting enzyme (ICE) …; experiment: cell-based or functional assay
[6] = molecular target: T2, interleukin-1β converting enzyme (ICE) …; experiment: cell-based or functional assay; remark: listed apart in the source
[7] = molecular target: T2, interleukin-1β converting enzyme (ICE) …; experiment: cell-based or functional assay; remark: listed apart in the source

Molecule | Ki [1] | Ki [4] | Cell IC50 (µM): inhibitor concentration at which 50% of mature IL-1β is detected in the supernatant [6] | also measured
N-[2-(N-Acetyl-tyrosinyl-valinyl)-(S)-1,2,3,4-tetrahydroisoquinoline-3-carbonyl]-3-amino-oxobutanoic acid (peptide) | 14 nM | – | – | –
Ac-YV[Pro(4-phenoxy)][Asp‑al] (not fully specified (C-terminus)) [N-(N-Acetyl-tyrosinyl-valinyl-(4-phenoxyprolinyl))-3-amino-4-oxobutanoic acid] | – | 7.2 nM | – | Cell IC50 (µM): inhibitor concentration at which 50% of mature IL-1β is detected in the supernatant [5]: 2.6 µM; Ki [3]: 5.2 nM
Ac-YVAD-X3 (also: Asp-derived residue (R,S), also called 84b) | – | 19 nM | 0.5 µM | –
Ac-YVAD-X1 (SMILES COc1cccc2nc(C(=O)[C@H](CC(=O)O)NC(=O)[C@H](C)NC(=O)[C@@H](NC(=O)[C@H](Cc3ccc(O)cc3)NC(C)=O)C(C)C)oc12, also called 69a) | – | 11 nM | 0.735 µM | –
Ac-YVAD-X2 (SMILES COc1cccc2oc(C(=O)[C@H](CC(=O)O)NC(=O)[C@H](C)NC(=O)[C@@H](NC(=O)[C@H](Cc3ccc(O)cc3)NC(C)=O)C(C)C)nc12, The printed name begins with 't-Butyl', but the compound was made by the method for the acid 69a and its printed formula C31H37N5O10 is that of the free acid; also called 69b) | – | 50 nM | 0.745 µM | –
Cbz-Val-Ala-Asp-{benzoxazol‑2‑yl ketone} (SMILES CC(C)[C@H](NC(=O)OCc1ccccc1)C(=O)N[C@@H](C)C(=O)N[C@@H](CC(=O)O)C(=O)c1nc2ccccc2o1) [(3S) N-(N-Benzyloxycarbonyl-(S)-valinyl-(S)-alaninyl)-3-amino-4-(2-benzoxazolyl)-4-oxobutanoate] | 850 nM | – | 4.1 µM | –
Ac-YV[Pro(4R-allyloxy)][Asp‑al] (not fully specified (C-terminus), also called 85) [N-(N-Acetyl-tyrosinyl-valinyl-(4(R)-allyloxy prolinyl))-3(S)-amino-4-oxobutanoic acid] | – | 3.5 nM | – | Cell IC50 (µM): inhibitor concentration at which 50% of mature IL-1β is detected in the supernatant [7]: 9.8 µM

Now from value to molecule, other results behind:

Ki [1] | Ki [4] | Cell IC50 (µM): inhibitor concentration at which 50% of mature IL-1β is detected in the supernatant [6] | Molecule | also measured
23 nM | – | – | N-(N-Acetyl-tyrosinyl-valinyl-pipecolyl)-3-amino-4-oxobutanoic acid (peptide) | Ki [2]: 4.7 nM
– | 10 nM | – | Ac-YV[Pro(4-benzyloxy)][Asp‑al] (not fully specified (C-terminus)) [N-[N-Acetyl-tyrosinyl-valinyl-(4-benzyloxy)prolinyl]-3-amino-4-oxobutanoic acid] | Ki [3]: 2 nM
– | 18 nM | – | Ac-YVAD-X4 (SMILES CC(=O)N[C@@H](Cc1ccc(O)cc1)C(=O)N[C@H](C(=O)N[C@@H](C)C(=O)N[C@@H](CC(=O)O)C(=O)COCc1ccccc1Cl)C(C)C, also called 89) | –
– | 12 nM | – | Ac-YV[Hyp][Asp‑al] (not fully specified (C-terminus)) [N-[N-Acetyl-tyrosinyl-valinyl-(4-hydroxyprolinyl)]-3-amino-4-oxobutanoic acid] | Ki [3]: 3.9 nM
100 nM | – | 3.3 µM | Cbz-Val-Ala-Asp-X3 (also: Asp-derived residue (R,S)) | –
175 nM | – | – | Ac-Val-Pro-Asp-X1 (not fully specified (residues 2, 3)) | Cell IC50 (µM): inhibitor concentration at which 50% of mature IL-1β is detected in the supernatant [7]: 4 µM
